Assay results from US9663815B2, “Cytosolically-active peroxidases as reporters for microscopy” (Massachusetts Institute of Technology, priority 2011, dated 2017).
Entries after “also recorded” stand apart in the source; their conditions may differ.

Experiments:
HEK cells = assay: DAB staining of transfected cells (brightfield); assay type: cell-based; details: for DAB staining activity in mitochondrial matrix: mitochondrial matrix-targeted constructs, HEK cells
Experimental: Next, the activity of wt APX and mAPX was compared in mammalian cells.
(§1) To generate a monomeric APX with improved activity, the two mAPX mutations (K14D/E112K) were added to each of the activity-enhanced mutants. […] The sextuple mutant (K14D, E112K, W41F, D133A, T135F, K136F=mAPX−FFAF), was compared to mAPX+W41F within cells. HEK cells were transfected with constructs targeted to the mitochondrial matrix (Table 3), while COS-7 cells were transfected with constructs fused to the C-terminus of connexin 43 (Table 3). After fixation, the cells were treated with DAB and H2O2 to generate DAB polymer. […] After fixation, cells were stained with anti-Flag (for matrix) or anti-myc (for connexin) antibody to visualize peroxidase expression levels. […] Therefore mAPX+W41F (K14D/E112K/W41F) was selected, denoted as “APEX” (for Enhanced APX), as the optimized reporter for subsequent experiments.
A solution of 4% formaldehyde (freshly depolymerized from paraformaldehyde) with 2% glutaraldehyde in 10 mM phosphate buffered saline (PBS) was added to cells 24 hours after transfection. Cells were treated for 3 min at room temperature, then 30 min on ice. Cells were then washed 5×2 min using ice cold 10 mM PBS. Cells were blocked with 20 mM glycine for 5 min on ice. Cells were then washed 5×2 min with ice-cold 10 mM PBS. Cells were then treated with an ice-cold solution of DAB (0.5 mg/mL) and H2O2 (0.03%) in 10 mM PBS for 20 min. Cells were then washed 5×2 min with ice-cold 10 mM PBS. Cells were treated with 2% OsO4 in ice-cold 10 mM PBS for 30 min, then washed 5×2 min with ice-cold distilled deionized water. Cells were then placed under ice-cold 2% aqueous uranyl acetate for 24 hours.
(§2) Any cell displaying detectable GFP fluorescence was considered transfected. Contact sites between neighboring transfected cells were identified using DIC imaging. Gap junctions were identified as lines of GFP fluorescence unambiguously overlaying with the plasma membrane of two transfected cells based on DIC. DAB stain intensity for APX-NES variants was analyzed using SlideBook. Transfected cells were identified by nuclear YFP fluorescence. In each transfected cell, a representative DAB-stained region was encircled, and its average brightfield intensity was calculated. Background intensity, determined for each field of view by encircling a representative region in the cytosol of an untransfected cell, was subtracted out. The bar graph in FIG. 2c represents mean data from >60 transfected cells.

[1] = Gel filtration chromatography, oligomerization state; assay type: physicochemical
Experimental: APX, fluorescent protein, or miniSOG preparations were diluted to the desired concentrations using chilled (4° C.) PBS and then allowed to incubate at room temperature for 30 min to overnight. Samples (100 μL) were run on a Waters HPLC system over a Superdex 75 10/300 column (GE Healthcare) that had been pre-equilibrated in PBS, pH 7.4. Samples were run isocratically in PBS at a flow rate of 0.5 mL/min. Elution of APX was monitored at 280 nm and 405 nm (heme absorbance). Empower software (Waters) was used for analysis of elution profiles. Apparent MWs were determined against low molecular weight standards (GE). […] The apparent MW of the monomer for wt APX was assumed to be equal to the apparent MW of mAPX at 0.25 μM.
To investigate whether this localization is an artifact of APEX dimerization at high concentrations, the experiment was repeated using a tandem dimer of APX^W41F (two APX^W41F proteins linked with a short amino acid chain, denoted tdAPX) as well as miniSOG in place of APEX. Additionally, gel filtration chromatography (GFC) was used to assess the relative abundance of oligomers that formed at increasing tdAPX concentrations in vitro (5 μM, 20 μM, and 47 μM). Three different linker lengths (18, 23, and 28 amino acids) were tested. His6-tagged proteins were expressed and purified from E. coli. All three variants gave a major peak with an apparent molecular weight (MW) of ˜56 kDa, as expected for tdAPX. The apparent MW of the major peak remained constant as a function of concentration for all three constructs. […] Therefore, the 28 amino acid linker variant was selected as the optimized tandem dimer to be used in EM experiments.

connexin43 (Cx43) = assay: Connexin43 fusion localization to gap junctions; assay type: cell-based, rat; details: fused to connexin43
Experimental: Both mAPX and wt APX were fused to connexin43 (Cx43), a protein that is sensitive to oligomeric tags (FIG. 4d) (McKinney, et. al., Nat Meth 6, 131-133 (2009); Lauf, et. al., FEBS letters 498, 11-15 (2001)).
as §1, §2

Molecule | DAB staining activity in mitochondrial matrix (HEK cells) | oligomerization state ([1]; PBS pH 7.4) | localization of connexin43 fusion / gap junction formation (connexin43 (Cx43)) | activity toward DAB (DAB stain) (HEK cells; expressed throughout the cytosol via NES fusion) | oligomerization state ([1]; PBS pH 7.4, listed as APX K14D/E112K)
wt APX: pea cytosolic ascorbate peroxidase (Pisum sativum), wild type, about 28 kD, dimeric (protein, listed as Pisum sativum) MGKSYPTVSPDYQKAIEKAKRKLRGFIAEKKCAPLILRLAWHSAGTFDSKTKTGGPFGTIKHQAELAHGANNGLDIAVRLLEPIKEQFPIVSYADFYQLAGVVAVEITGGPEVPFHPGREDKPEPPPEGRLPDATKGSDHLRDVFGKAMGLSDQDIVALSGGHTIGAAHKERSGFEGPWTSNPLIFDNSYFTELLTGEKDGLLQLPSDKALLTDSVFRPLVEKYAADEDVFFADYAEAHLKLSELGFAEA | comparably active | predominantly dimeric at 0.25 μM; also recorded: runs as a dimer | abnormal retention inside cells | – | –
mAPX: double mutant K14D/E112K of pea APX (SEQ ID NO:1), monomeric (protein, listed as Pisum sativum) MGKSYPTVSPDYQDAIEKAKRKLRGFIAEKKCAPLILRLAWHSAGTFDSKTKTGGPFGTIKHQAELAHGANNGLDIAVRLLEPIKEQFPIVSYADFYQLAGVVAVEITGGPKVPFHPGREDKPEPPPEGRLPDATKGSDHLRDVFGKAMGLSDQDIVALSGGHTIGAAHKERSGFEGPWTSNPLIFDNSYFTELLTGEKDGLLQLPSDKALLTDSVFRPLVEKYAADEDVFFADYAEAHLKLSELGFAEA | comparably active | comparable to EYFP and much more monomeric than both wt APX and mEos2 | – | less active than wt APX | most monomericity
